# Source: FireProtDB (doi:10.1007/s10930-015-9600-7)
# B1: Carboxymethylenebutenolidase, P0A115 (parent)
# chain: MLTEGISIQSYDGHTFGALVGSPAKAPAPVIVIAQEIFGVNAFMRETVSWLVDQGYAAVCPDLYARQAPGTALDPQDERQREQAYKLWQAFDMEAGVGDLEAAIRYARHQPYSNGKVGLVGYCLGGALAFLVAAKGYVDRAVGYYGVGLEKQLKKVPEVKHPALFHMGGQDHFVPAPSRQLITEGFGANPLLQVHWYEEAGHSFARTSSSGYVASAAALANERRLDFLAPLQSKKP
# Variants of: B1
# Settings: Pseudomonas knackmussii (strain DSM 6978 / CCUG 54928 / LMG 23759 / B13), pH 7.5, Thermal, Hepes 50 mM, structure 4U2B, whole UniProt chain shown
Variant,"Tm (Activity, NaCl 75 mM)","change of melting temperature, mutant - wild type (higher = more stable) (Activity, NaCl 75 mM)",Tm (fluorescence),"change of melting temperature, mutant - wild type (higher = more stable) (fluorescence)"
MLTEGISIQSYDGHTFGALVGSPAKAPAPVIVIAQEIFGVNAFMRETVSWLVDQGYAAVCPDLYARQAPGTALDPQDERQREQAYKLWQAFDMEAGVGDLEAAIRYARHQPYSNGKVGLVGYCLGGALAFLVAAKGYVDRAVGYYGVGLEKQLDKVPEVKHPALFHMGGQDHFVPAPSRQLITEGFGANPLLQVHWYEEAGHSFARTSSSGYVASAAALANERRLDFLAPLQSKKP [K154D],53.9 °C,2.7 °C,54.4 °C,2.9 °C
MLTEGISIQSYDGHTFGALVGSPAKAPAPVIVIAQEIFGVNAFMRETVSWLVDQGYAAVCPDLYARQAPGTALDPQDERQREQAYKLWQAFDMEAGVGDLEAAIRYARHLPYSNGKVGLVGYCLGGALAFLVAAKGYVDRAVGYYGVGLEKQLDKVPEVKHPALFHMGGQDHFVPAPSRQLITEGFGANPLLQVHWYEEAGHSFARTSSSGYVASAAALANERRLDFLAPLQSKKP [Q110L K154D],54.2 °C,3.1 °C,54.8 °C,3.3 °C
MLTEGISIQSYDGHTFGALVGSPAKAPAPVIVIAQEIFGVNAFMRETVSWLVDQGYAAVCPDLYARQAPGTALDPQDERQREQAYKLWQAFDMEAGVGDLEAAIRYARHQPYSNGKVGLVGYCLGGALAFLVAAKGCVDRAVGYYGVGLEKQLKKVPEVKHPALFHMGGQDHFVPAPSRQLITEGFGANPLLQVHWYEEAGHSFARTSSSGYVASAAALANERRLDFLAPLQSKKP [Y137C],49.3 °C,-1.9 °C,50.8 °C,-0.7 °C
